# B1: PCT64 35S Fab (Fab, V domains shown)
# VH: EVQLVESGGGLVKPGGSLRLACVGSEFTFSEAWMTWVRQAPGKGLEWVGHMRPTTEGGAKDYAAAVRGRFTIARDDSKSTLYLQMNSLKIEDTGVYYCMTGVERGDFWSDDYSQHYNTYLIDVWGKGTTVTVSS
# VL: EIVLTQSPGTLSLSPGDRATLSCRATQSVGGDYFAWYQQRPGQSPRLLIYGTSRRAAGIPDRFSGSGSGTDFTLTIDRLEPEDFAVYYCRQYETSFTFGPGTKVDIK
# Target: ApexGT2 trimer (HIV-1 isolate BG505)
# Test: cryo-EM structure
binder,measurement,value
B1,stoichiometry N (Fab per trimer),1

# Reference: publication PMC9671094
